Kd data for two sequences are collected here from article PMC9951875.

The series has as its target UspA2 (ubiquitous surface protein A2), displayed on E. coli BL21(DE3) (Moraxella catarrhalis Bc5) (UniProt Q9XD55). Nature of the series: fluorescence cell-binding titration (eluted FAM-aptamer).

“ATCCAGAGTGACGCAGCATGGGACGGTGCGGGGGAGGAGGATGAGCGTGGTCGTTGGGTGGCTGCCGCAATGTCGTTGGTGGCCC [FAM-Apt1]”: the Kd came out at 214 nM.

“GGGCCACCAACGACATTGCGGCAGCCACCCAACGACCACGCTCATCCTCCTCCCCCGCACCGTCCCATGCTGCGTCACTCTGGAT [FAM-Apt1_RC]” yielded a Kd of 3.4 nM.
